What all share (assay): SPR; Biacore T200; omalizumab, Fabs and scFv immobilised on CM5 chips by amine coupling; IgE-Fc injected in a twofold dilution series (100-0.4 nM), 20 µl/min, 240 s association, 900 s dissociation; 25°C; 20 mM HEPES pH 7.4, 150 mM NaCl, 0.005% (v/v) surfactant P20; biphasic model with one higher-affinity and one lower-affinity interaction
On the technique in general: In SPR one partner is held on a chip, and binding of the other changes the refractive index at the surface.

Assay [1] has as its target FabXol (wild-type omalizumab Fab).
In assay [2] the target is FabXol2 (omalizumab-derived Ser81Arg, Gln83Arg light-chain mutant Fab).
Assay [3] deals with FabXol3 (omalizumab-derived Ser81Arg, Gln83Arg, Leu158Pro light-chain mutant Fab).
In assay [4] the target is Omalizumab (intact anti-IgE monoclonal IgG1 antibody).
The target of assay [5] is scFvXol (omalizumab-derived scFv).

As to “IgE-Fc (Fc region of immunoglobulin E) (domain or fragment)”, the koff1 (biphasic model) was 0.00056 s⁻¹ in assay [1]; 0.00045 s⁻¹ in assay [2]; 0.00033 s⁻¹ in assay [3]; 0.0007 s⁻¹ in assay [4]; 0.00029 s⁻¹ in assay [5]. Moreover, the koff2 (biphasic model) in assay [1] is 0.012 s⁻¹; in assay [2], 0.011 s⁻¹; in assay [3], 0.009 s⁻¹; in assay [4], 0.012 s⁻¹; in assay [5] it was 0.0087 s⁻¹. The kon1 (biphasic model) was found to be 570000 M⁻¹ s⁻¹ in assay [1]; 510000 M⁻¹ s⁻¹ in assay [2]; 970000 M⁻¹ s⁻¹ in assay [3]; 330000 M⁻¹ s⁻¹ in assay [4]; 690000 M⁻¹ s⁻¹ in assay [5]. The kon2 (biphasic model) stood at 440000 M⁻¹ s⁻¹ in assay [1]; 330000 M⁻¹ s⁻¹ in assay [2]; 270000 M⁻¹ s⁻¹ in assay [3]; 290000 M⁻¹ s⁻¹ in assay [4]; 310000 M⁻¹ s⁻¹ in assay [5].

(Values after publication PMC7057348.)
